Measurements: patent US20190177380, “SYNTHETIC MBNL PROTEINS FOR TREATMENT OF REPEAT EXPANSION DISEASE” (University of Florida Research Foundation, Incorporated, published 2019)

Tests used:
[1] = target: T1, Xlrbpa dsRBD2 (printed Xlbpra) (Xenopus laevis) (UniProt Q91836); conditions: CITED; isolated dsRBD2; cited from earlier work
T1 sequence: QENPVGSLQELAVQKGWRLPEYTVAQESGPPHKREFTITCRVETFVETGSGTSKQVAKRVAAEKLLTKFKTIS

[2] = target: T2, TRBP dsRBD2 (TARBP2) (Homo sapiens) (UniProt Q15633); conditions: CITED; isolated dsRBD2; cited from earlier work
T2 sequence: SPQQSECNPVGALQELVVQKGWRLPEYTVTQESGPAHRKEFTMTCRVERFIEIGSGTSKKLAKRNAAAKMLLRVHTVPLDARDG

[3] = target: T3, WT-MBNL1 (truncated, aa 1-260 with HA tag and SV40 NLS) (Homo sapiens, UniProt Q9NR56 SEQ:14-272); assay: EMSA; 115 mM NaCl, 20 mM Tris pH 7.5, 5 mM MgCl2, heparin, room temperature; apparent Kd; repeated with another batch in FIG. 10C; conditions: label: 5'-32P; short hairpin (predicted)
T3 chain: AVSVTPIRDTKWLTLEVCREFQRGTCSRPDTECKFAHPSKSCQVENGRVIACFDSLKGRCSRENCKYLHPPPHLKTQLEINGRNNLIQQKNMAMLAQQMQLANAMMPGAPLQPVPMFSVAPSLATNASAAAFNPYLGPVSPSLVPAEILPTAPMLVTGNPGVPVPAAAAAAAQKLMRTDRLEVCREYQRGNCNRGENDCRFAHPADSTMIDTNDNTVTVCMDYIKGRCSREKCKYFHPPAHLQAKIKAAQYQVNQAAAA
From the text: (§1) All synthetic MBNL1 proteins were expressed and purified as N-terminal glutathione S-transferase (GST) fusions (FIG. 4A). These proteins were then used in electrophoretic mobility shift assays (EMSAs) with CUG₄ RNA substrate. The fraction of radiolabeled RNA bound to the protein was used to determine an apparent KD (dissociation constant). […] (FIG. 4B).
(§2) All RNA substrates were ordered from IDT (Coralville, Iowa) or Dharmacon (Lafayette, Colo.) and 5′ end-labelled using T4 PNK (NEB, Ipswich, Mass.) with [γ-³²P] ATP. All RNAs were purified on 10% polyacrylamide denaturing gels. Prior to incubation with protein, these RNAs were denatured by incubation at 95° C. for 2 minutes followed by a 5 minute incubation on ice. Once cooled the RNA was mixed with increasing concentrations of protein (final volume=10 μl) to yield final reaction conditions of 115 mM NaCl, 20 mM Tris pH 7.5, 1 mM β-ME, 0.01 mM EDTA, 10% glycerol, 5 mM MgCl₂, 0.1 mg/ml heparin, 2 mg/ml bovine serum albumin (BSA), and 0.02% xylene cyanol. […] Binding curves were quantified using ImageQuant software (GE Healthcare Life Sciences, Pittsburgh, Pa.). The fraction of RNA bound was calculated as the ratio of all RNA-protein complexes divided by total RNA signal in each lane. The apparent Kd was then determined using the following equation: fbound=fₘₐₓ([MBNL1]/([MBNL1+Kd)).

MBNL1(3-4,3-4) = target: T4, MBNL1(3-4,3-4) (Homo sapiens); assay: EMSA; 115 mM NaCl, 20 mM Tris pH 7.5, 5 mM MgCl2, heparin, room temperature; apparent Kd; conditions: label: 5'-32P; short hairpin (predicted)
T4 chain: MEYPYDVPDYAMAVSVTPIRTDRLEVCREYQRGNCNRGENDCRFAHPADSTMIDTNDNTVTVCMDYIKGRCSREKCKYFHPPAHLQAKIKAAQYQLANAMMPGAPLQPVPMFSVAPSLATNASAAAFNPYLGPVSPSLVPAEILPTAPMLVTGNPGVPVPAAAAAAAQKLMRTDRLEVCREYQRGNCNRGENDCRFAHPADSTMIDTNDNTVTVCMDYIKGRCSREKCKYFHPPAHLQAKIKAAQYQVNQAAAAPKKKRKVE
From the text: as §1, §2

MBNL1(1-2,1-2) = target: T5, MBNL1(1-2,1-2) (Homo sapiens); assay: as above; conditions: label: 5'-32P; short hairpin (predicted)
T5 chain: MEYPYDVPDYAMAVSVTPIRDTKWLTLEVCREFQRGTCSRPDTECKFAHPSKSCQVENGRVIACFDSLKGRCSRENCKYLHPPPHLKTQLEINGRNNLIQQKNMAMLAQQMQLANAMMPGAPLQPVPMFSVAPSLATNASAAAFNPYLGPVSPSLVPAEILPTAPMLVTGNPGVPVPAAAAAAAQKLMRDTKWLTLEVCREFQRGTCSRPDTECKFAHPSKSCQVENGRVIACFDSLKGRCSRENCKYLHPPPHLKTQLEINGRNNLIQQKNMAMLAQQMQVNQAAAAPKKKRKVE
From the text: as §1, §2

In the case of 30 bp synthetic dsRNA, the Kd [1] is given as 11 nM.

For HIV TAR RNA, the Kd [2] is given as 59 nM.

For GCUGCUGUUCGCUGCUG (ssRNA) [CUG4], the Kd [3] was 196 nM, the Kd (MBNL1(3-4,3-4)) was 257 nM and the Kd (MBNL1(1-2,1-2)) was 269 nM.
